# According to patent US6258556:
# Biological target: human µ opiate receptor (human)
substance,measurement,value
"(D-ala^2, N-methyl-phe^4, glyol^5) enkephalin (peptide)",adenyl cyclase activity (cAMP radioimmunoassay) in forskolin-stimulated COS cells,> 30%
